{
  "source": "patent US20110294728",
  "about": "“Antiviral Polypeptides” (published 2011)",
  "binders": {"B1": {"name": "19/36-mer DNA/DNA primer/template (HIV-1 PBS) (dsDNA)", "DNA 1": "TCCCTGTTCGGGCGCCACT", "DNA 2": "TGTGGAAAATCTCATGCAGTGGCGCCCGAACAGGGA"}, "B2": {"name": "19/36-mer (printed 18/36) DNA/DNA primer/template, unlabelled (dsDNA)", "DNA 1": "TCCCTGTTCGGGCGCCACT", "DNA 2": "B1 DNA 2"}},
  "key": {"[1]": {"target": "HIV-1 reverse transcriptase p66/p51 in complex with PAW peptide (HIV-1 (BH10), UniProt P03366;P03366 P03366:600-1159,P03366:600-1039)", "experiment": "steady-state fluorescence quenching; 10 uM PAW; 50 mM Tris-HCl pH 8.0, 50 mM KCl, 10 mM MgCl2, 25 C", "conditions": "protein: synthetic; label: 6-FAM at primer 3' end; primer/template with 5' single-stranded template overhang"}, "[2]": {"target": "HIV-1 reverse transcriptase p66/p51 heterodimer (HIV-1 (BH10), UniProt P03366;P03366 P03366:600-1159,P03366:600-1039)", "experiment": "steady-state fluorescence quenching; 50 mM Tris-HCl pH 8.0, 50 mM KCl, 10 mM MgCl2, 1 mM DTT, 25 C", "conditions": "tags: recombinant from E. coli; His-tagged and untagged preparations described, form used in the titration not specified; label: 6-FAM at primer 3' end; primer/template with 5' single-stranded template overhang"}, "[3]": {"target": "HIV-1 reverse transcriptase p66/p51 in complex with FITC-PAW (HIV-1 (BH10), UniProt P03366;P03366 P03366:600-1159,P03366:600-1039)", "experiment": "quenching of FITC-PAW pre-bound to RT on titration with unlabelled p/t; 10 mM MgCl2, 25 C", "conditions": "tags: PAW with C-terminal Cys-FITC; primer/template with 5' single-stranded template overhang"}},
  "data": [
    {"binder": "B1", "values": [
      {"measurement": "Kd", "setting": "[1]", "value": 99, "unit": "nM"},
      {"measurement": "Kd", "setting": "[2]", "value": 22, "unit": "nM"}
    ]},
    {"binder": "B2", "values": [
      {"measurement": "Kd", "setting": "[3]", "value": 66.5, "unit": "nM"}
    ]}
  ]
}
